Experimental findings from the Human Domainome abundance scans (Beltran et al. 2025) are described below.

± gives the uncertainty stated by the source.

To fix the notation:
B1: GA-binding protein alpha chain, residues 172 to 250; numbered along this chain, Q06546 (parent)
chain: GYRKEQERLGIPYDPIQWSTDQVLHWVVWVMKEFSMTDIDLTTLNISGRELCSLNQEDFFQRVPRGEILWSHLELLRKY

Variants of B1 are the subject of the data set. The experiment in a line: abundance fitness (aPCA) (normalised: wild type 0, dead -1); higher = more abundant; growth selection in yeast, the domain comes from the species named. As to conditions: Homo sapiens.
GYRKEQERLGIPYDPIQWSTDQVLHWVVWVMKEFSMTDIDLTTLNISGRELCSLNQEWFFQRVPRGEILWSHLELLRKY [D58W]: the abundance fitness is -0.19 ± 0.046.

For GYRKEQERLGIPYDPIQWSTDQVLHWVVWVMKEFSMTDIDLTTLNISGRELCSLNQEHFFQRVPRGEILWSHLELLRKY [D58H], the abundance fitness is -0.149 ± 0.1.

Turning to GYRKEQERLGIPYDPIQWSTDQVLHWVVWVMKEFSMTDIDLTTLNISGRELCSLNQERFFQRVPRGEILWSHLELLRKY [D58R], the abundance fitness was -0.092 ± 0.037.

Turning to GYRKEQERLGIPYDPIQWSTDQVLHWVVWVMKEFSMTDIDLTTLNISGRELCSLNQEGFFQRVPRGEILWSHLELLRKY [D58G], the abundance fitness is -0.071 ± 0.03.

In the case of GYRKEQERLGIPYDPIQWSTDQVLHWVVWVMKEFSMTDIDLTTLNISGRELCSLNQEMFFQRVPRGEILWSHLELLRKY [D58M], the abundance fitness was -0.004 ± 0.083.

In the case of GYRKEQERLGIPYDPIQWSTDQVLHWVVWVMKEFSMTDIDLTTLNISGRELCSLNQEEFFQRVPRGEILWSHLELLRKY [D58E], the abundance fitness is -0.095 ± 0.044.

For the variant GYRKEQERLGIPYDPIQWSTDQVLHWVVWVMKEFSMTDIDLTTLNISGRELCSLNQEPFFQRVPRGEILWSHLELLRKY [D58P], the abundance fitness was -0.943 ± 0.19.

As for GYRKEQERLGIPYDPIQWSTDQVLHWVVWVMKEFSMTDIDLTTLNISGRELCSLNQELFFQRVPRGEILWSHLELLRKY [D58L], the abundance fitness is -0.087 ± 0.044.

Turning to GYRKEQERLGIPYDPIQWSTDQVLHWVVWVMKEFSMTDIDLTTLNISGRELCSLSQEDFFQRVPRGEILWSHLELLRKY [N55S], the abundance fitness was found to be 0.012 ± 0.035.

As to GYRKEQERLGIPYDPIQWSTDQVLHWVVWVMKEFSMTDIDLTTLNISGRELCSLWQEDFFQRVPRGEILWSHLELLRKY [N55W], the abundance fitness is -0.782 ± 0.13.

GYRKEQERLGIPYDPIQWSTDQVLHWVVWVMKEFSMTDIDLTTLNISGRELCSLRQEDFFQRVPRGEILWSHLELLRKY [N55R]: the abundance fitness is -0.014 ± 0.033.

For GYRKEQERLGIPYDPIQWSTDQVLHWVVWVMKEFSMTDIDLTTLNISGRELCSLLQEDFFQRVPRGEILWSHLELLRKY [N55L], the abundance fitness is -0.252 ± 0.03.

In the case of GYRKEQERLGIPYDPIQWSTDQVLHWVVWVMKEFSMTDIDLTTLNISGRELCSLMQEDFFQRVPRGEILWSHLELLRKY [N55M], the abundance fitness is -0.291 ± 0.054.

For GYRKEQERLGIPYDPIQWSTDQVLHWVVWVMKEFSMTDIDLTTLNISGRELCSLPQEDFFQRVPRGEILWSHLELLRKY [N55P], the abundance fitness was -0.039 ± 0.048.

For the variant GYRKEQERLGIPYDPIQWSTDQVLHWVVWVMKEFSMTDIDLTTLNISGRELCSLYQEDFFQRVPRGEILWSHLELLRKY [N55Y], the abundance fitness is -0.274 ± 0.089.

With GYRKEQERLGIPYDPIQWSTDQVLHWVVWVMKEFSMTDIDLTTLNISGRELCSLTQEDFFQRVPRGEILWSHLELLRKY [N55T], the abundance fitness is -0.025 ± 0.047.

For GYRKEQERLGIPYDPIQWSTDQVLHWVVWVMKEFSMTDIDLTTLNISGRELCSLVQEDFFQRVPRGEILWSHLELLRKY [N55V], the abundance fitness is -0.148 ± 0.04.

Turning to GYRKEQERLGIPYDPIQWSTDQVLHWVVWVMKEFSMTDIDLTTLNISGRELCSLNKEDFFQRVPRGEILWSHLELLRKY [Q56K], the abundance fitness was -0.004 ± 0.091.

As for GYRKEQERLGIPYDPIQWSTDQVLHWVVWVMKEFSMTDIDLTTLNISGRELCSLNREDFFQRVPRGEILWSHLELLRKY [Q56R], the abundance fitness was -0.008 ± 0.037.

For GYRKEQERLGIPYDPIQWSTDQVLHWVVWVMKEFSMTDIDLTTLNISGRELCSLNPEDFFQRVPRGEILWSHLELLRKY [Q56P], the abundance fitness is -0.178 ± 0.055.

GYRKEQERLGIPYDPIQWSTDQVLHWVVWVMKEFSMTDIDLTTLNISGRELCSLNIEDFFQRVPRGEILWSHLELLRKY [Q56I]: the abundance fitness is -0.133 ± 0.088.

Consider GYRKEQERLGIPYDPIQWSTDQVLHWVVWVMKEFSMTDIDLTTLNISGRELCSLNYEDFFQRVPRGEILWSHLELLRKY [Q56Y], for which the abundance fitness came out at 0.025 ± 0.099.

As to GYRKEQERLGIPYDPIQWSTDQVLHWVVWVMKEFSMTDIDLTTLNISGRELCSLNEEDFFQRVPRGEILWSHLELLRKY [Q56E], the abundance fitness is -0.015 ± 0.054.

Turning to GYRKEQERLGIPYDPIQWSTDQVLHWVVWVMKEFSMTDIDLTTLNISGRELCSLNVEDFFQRVPRGEILWSHLELLRKY [Q56V], the abundance fitness is -0.184 ± 0.047.

For GYRKEQERLGIPYDPIQWSTDQVLHWVVWVMKEFSMTDIDLTTLNISGRELCSLNLEDFFQRVPRGEILWSHLELLRKY [Q56L], the abundance fitness was -0.291 ± 0.043.

GYRKEQERLGIPYDPIQWSTDQVLHWVVWVMKEFSMTDIDLTTLNISGRELCSLNDEDFFQRVPRGEILWSHLELLRKY [Q56D]: the abundance fitness was -0.262 ± 0.091.

For the variant GYRKEQERLGIPYDPIQWSTDQVLHWVVWVMKEFSMTDIDLTTLNISGRELCSLNAEDFFQRVPRGEILWSHLELLRKY [Q56A], the abundance fitness is -0.044 ± 0.047.

Consider GYRKEQERLGIPYDPIQWSTDQVLHWVVWVMKEFSMTDIDLTTLNISGRELCSLNWEDFFQRVPRGEILWSHLELLRKY [Q56W], for which the abundance fitness was -0.351 ± 0.065.

For GYRKEQERLGIPYDPIQWSTDQVLHWVVWVMKEFSMTDIDLTTLNISGRELCSLNCEDFFQRVPRGEILWSHLELLRKY [Q56C], the abundance fitness was -0.162 ± 0.068.

In the case of GYRKEQERLGIPYDPIQWSTDQVLHWVVWVMKEFSMTDIDLTTLNISGRELCSLNHEDFFQRVPRGEILWSHLELLRKY [Q56H], the abundance fitness is -0.049 ± 0.083.

On to GYRKEQERLGIPYDPIQWSTDQVLHWVVWVMKEFSMTDIDLTTLNISGRELCSLNNEDFFQRVPRGEILWSHLELLRKY [Q56N], for which the abundance fitness was -0.455 ± 0.13.

In the case of GYRKEQERLGIPYDPIQWSTDQVLHWVVWVMKEFSMTDIDLTTLNISGRELCSLNFEDFFQRVPRGEILWSHLELLRKY [Q56F], the abundance fitness was -0.087 ± 0.097.

GYRKEQERLGIPYDPIQWSTDQVLHWVVWVMKEFSMTDIDLTTLNISGRELCSLNTEDFFQRVPRGEILWSHLELLRKY [Q56T]: the abundance fitness was -0.132 ± 0.066.

As for GYRKEQERLGIPYDPIQWSTDQVLHWVVWVMKEFSMTDIDLTTLNISGRELCSLNGEDFFQRVPRGEILWSHLELLRKY [Q56G], the abundance fitness was -0.245 ± 0.04.

As to GYRKEQERLGIPYDPIQWSTDQVLHWVVWVMKEFSMTDIDLTTLNISGRELCSLNMEDFFQRVPRGEILWSHLELLRKY [Q56M], the abundance fitness is -0.107 ± 0.066.
